Assay results from the nanobody polyreactivity screen of Harvey et al. (2022).

test: yeast display, Sf9 membrane polyspecificity reagent, FACS + sequencing; frameworks hold sequencing errors
In short: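 In a synthetic yeast display library (Saccharomyces cerevisiae BJ5465), nanobody expression was induced with galactose for 36–48 hours. FACS gates were set low and high (top ~1%) using anti-HA fluorescence for expression and streptavidin fluorescence for binding of the Sf9 membrane reagent. Each polyreactivity label is drawn from the gate of origin.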

Row | Sequence | polyreactivity (PSR sort gate)
1 | QVQLVESGGGLVQAGGSLRLSCAASGRIFTTNAMGWYRQAPGKERELVAAITSGASTKYADSVKGRFTISRDNAKNTVYLQMNCLKPEDTAVYYCNAKRGVNLRSNWYSHLRMDHWGQGTQVTVSS | low polyreactivity
2 | QVQLVESGGGLVQAGGSLRLSCAASGRIFTTYAKGWYRQAPGKERDLVAAISQNGGSTYYADSVKGRFTISRDNAKNTVYLPMNSLKPEDTAVYYCKAGAAGYYDYDYWGQGTQVTVSS | low polyreactivity
3 | QVQLVESGGGLVQAGGSLRLSCAASGRIFTTYAMGWYRQAPGKERELVAAISQNGGSTYYADSVKGRFTISRDNAKNTVYLQMNSLKPEETAVYYCNAGPAGYYDYDYWGQGTQVTVSS | low polyreactivity
4 | QVQLVESGGGLVQAGGSLRLSCAASGRIFTTYAMGWYRQAPGKERELVAAISRSGGSTYYADSVKGRFTISRDNAKNTVYLQMNSLKPEDTAVYYCAARRRQEHVGRSSYARYDYWGQGTQVTVSS | high polyreactivity
5 | QVQLVESGGGLVQAGGSLRLSCAASGRIFTTYAMGWYRQAPGKERELVAAISRSGGSTYYADSVKGRFTISRDNAKNTVYLQMNSLKPEDTAVYYCAAVPTSNSFRSSFYYWGQGTQVTVSS | high polyreactivity
6 | QVQLVESGGGLVQAGGSLRLSCAASGRIFTTYAMGWYRQAPGKERELVAAITSGGGTYYADSVKGRFTISRDNAKNTVYLQMNSLKPEDTAVYYCNADYSADYYWYYYWGQGTQVTVSS | low polyreactivity
7 | QVQLVESGGGLVQAGGSLRLSCAASGRIFTTYAMGWYRQAPGKERELVASISWRVGSTYYADSVKGRFTISRDNAKITVYLQMNSLKPEETAVYYCAAVGGNYHASGLRYYWGQGNQVTVSS | low polyreactivity
8 | QVQLVESGGGLVQAGGSLRLSCAASGRIFTVYAMGWYRQAPGKERELVAAISGRGGRTYYADSVKGRFTISRDNAKNTVYLQMNSLTPEDTAVYYCADYSYVRSSYEVEYDYWGQGTQVTVSS | low polyreactivity
9 | QVQLVESGGGLVQAGGSLRLSCAASGRIFTWYAMGWYRQAPGKERELVAAISSAGRTYYADSVKGRFTISRDNAKNTVYLQMNSLKPEDTAVYYCAKVSKYRHFYTFDYWGQGTQVTVSS | high polyreactivity
10 | QVQLVESGGGLVQAGGSLRLSCAASGRIFTYYAMGWYRQAPGKERELVAAISSGGSTYYADSVKGRFTISRDNAKNTVYLQMNSLKPEDTAVYYCAAEPWYYPYLSPTYGYWGHGTQVTVSS | low polyreactivity
11 | QVQLVESGGGLVQAGGSLRLSCAASGRIFTYYAMGWYRQAPGKERELVATITRRGGRTYYADSVKGRFTISRDNAKNTVYLQMNSLKPEDTAVYYCAVVPETRYYYWGQGTLVTVSS | high polyreactivity
12 | QVQLVESGGGLVQAGGSLRLSCAASGRIFTYYTMGWYRQAPGKERELVAAISWSGGRTYYADSVKGRFTISRDNAKNTVYLQMNSLKPEDTAVFYCARLQDSRESPWRGYYWGQGTQVTVSS | high polyreactivity
13 | QVQLVESGGGLVQAGGSLRLSCAASGRIFTYYTMGWYRQAPGKERELVAAISYSGRTYYADSVKGRFTISRDNAKNTVYLQMNSLKPEDTAVYYCNAARPRGYGFDYWGQGTQVTVSS | high polyreactivity
14 | QVQLVESGGGLVQAGGSLRLSCAASGRIFTYYTMGWYRQAPGKERELVASITGGGGRTYYADSVKGRFTISRDNAKNTVYLQMNSLKPEDTAVYYCNARYPYPYWYTSYDYWGQGTQVTVSS | high polyreactivity
15 | QVQLVESGGGLVQAGGSLRLSCAASGRIFVDYAMGWYRQAPGKERELVAAITRSGDRTYYADSVKGRFTISRDNAKNTVYLQMNSLKPEDTAVYYCATVYPGYVWGQGTQVTVSS | low polyreactivity
16 | QVQLVESGGGLVQAGGSLRLSCAASGRIFVGNAMVCYKQAPGKERELVAGITSRGGSTYYADSVKGRFTISRDNAKNTVYLQMNSLKQEDTAVYYCASYYRYPSWKFDYWGQGTQVTVSS | high polyreactivity
17 | QVQLVESGGGLVQAGGSLRLSCAASGRIFVGYALGWYRQAPGKERELVAAINRSGSSTYYADSVKGRFTISRDNAKNTDYLQMNSLKPEDTAVYYCNARSGNRYGPRYDYWGQGTQVTVSS | high polyreactivity
18 | QVQLVESGGGLVQAGGSLRLSCAASGRIFVGYAMGWYRQAPGKERELVAAINRSGSSTYYADSVKGRFTISRDNAKNTVYLQTNSLKPEDTAVYYCAVRPLYDRRYTAVRRYDYWGQGTQVTVSS | high polyreactivity
19 | QVQLVESGGGLVQAGGSLRLSCAASGRIFVGYAMGWYRQATGKERELVAAISARGGSTYYADSVKGRCTISRDNAKNTVYIQMNSLKPEDTAVYYCAADEASSRGYYDYDYWGQGTQVTVSS | low polyreactivity
20 | QVQLVESGGGLVQAGGSLRLSCAASGRIFVGYVMGWYRQAPGKERELVAAISSGGRTYYADSVKGRFTISRDNAKNTVYLQMNSLKPEDTAVYYCAAKRGGYNKEYDYWGQGTQVTVSS | high polyreactivity
21 | QVQLVESGGGLVQAGGSLRLSCAASGRIFVHNAMGWYRQAPGKERELVAAIRSSGGRTYYADSVKGRFTISRDNAKKTVYLQMNSLKPEDTAVYYCAARFDTTRVGYWGQGTQVTVSS | high polyreactivity
22 | QVQLVESGGGLVQAGGSLRLSCAASGRIFVHNAMGWYSQARGKERELVAAINSGGSTNYADSVKGRFTISRDNANKTVYLQMNSLKPEDTAVYYCAAYWYPYPDAFEYYNYGYWGQGTQVTVSS | high polyreactivity

Row | Sequence | polyreactivity (PSR sort gate)
23 | QVQLVESGGGLVQAGGSLRLSCAASGRIFVHNVMGWYRQAPGKERELVAAITVSGGGTYYADSVKGRFTISRDNAKNTVYLQMNSLKQEDTAVYYCNAVPHPYDWGQGTQVTVSS | low polyreactivity
24 | QVQLVESGGGLVQAGGSLRLSCAASGRIFVHYAMGWYRQAPGKERDLVAAISMSGGNTYYADSVKGRFTISRDNEKNTVYLQMNSLKPEDTAVYYCARAPYYVASGHRRVLRPTYEYWGQGTQLTVSS | low polyreactivity
25 | QVQLVESGGGLVQAGGSLRLSCAASGRIFVHYASGWYRQAPGKERELVAAISWNGGRTFYADSVKGRFTISRDNAKNTVYLQMNSLKPEDTAVYYCAARSRYSLDYWGQGTQVTVSS | high polyreactivity
26 | QVQLVESGGGLVQAGGSLRLSCAASGRIFVHYVMGWYRQAPGKERELVAAISRSGGRTYYADSVKGRFTISRDNAKNTVYLQMNSLKAEDTAVYYCATDASTYKYDYWGQGSQVTVSS | high polyreactivity
27 | QVQLVESGGGLVQAGGSLRLSCAASGRIFVHYVMGWYRQAPGKERELVAAITVSGGGTYYADSVKGRFTISRDNAKNTVYLQMNSLKPEDTAVYYCNAVPHPYDWGQGTQVTVSS | low polyreactivity
28 | QVQLVESGGGLVQAGGSLRLSCAASGRIFVINTMGWYRQAPGKERELVAAISRGGSTNYADSVKGRFTISRDNAKNTVYLQMNSLKPEDTAVYDCAATGYILFAGCGYDYWGEGTQVTVSS | low polyreactivity
29 | QVQLVESGGGLVQAGGSLRLSCAASGRIFVIYAMGWYRQAPGKERELVAAISYSGGSTYYADSVKGRFTISRDNAKNTVYLQMNSLKPEDTAVYYCAARVRGDYGHKYYQYDYWGQGTQVTVSS | low polyreactivity
30 | QVQLVESGGGLVQAGGSLRLSCAASGRIFVKYAMGWYRQAPGKERELVAAISKSGGSTYYADSVKGRFTISRDNAKNTVYLQMNSLKPEDTAVYYCATRSREQYSVSYRLDYWGQGTQVTVSS | low polyreactivity
31 | QVQLVESGGGLVQAGGSLRLSCAASGRIFVKYGMGWYRQAPGKERELVAAISWTGGSTYYADSVKGRFTISRDNAKNTVYLQMNSLKPEDTAVYYCAAESWFKYDYWGQGTQVTVSS | low polyreactivity
32 | QVQLVESGGGLVQAGGSLRLSCAASGRIFVLYAMGWYRQAPGKERELVAAINWSGGSTFYADSVKGRFTISRDNAKNTVYLQMNSLKPEDTAVYYCAARRGYNDGYWGQGTQVTVSS | high polyreactivity
33 | QVQLVESGGGLVQAGGSLRLSCAASGRIFVNNAMGWYRQAPGKEREFDATITSSGGRTYYADSVKGRFTISRDNAKYTVYLQMNSLKPEDTAVYYCAARPQNNGRNPVYRYNYWGQGTQVTVSS | high polyreactivity
34 | QVQLVESGGGLVQAGGSLRLSCAASGRIFVPYAMGWYRQAPGKERELVAAISRNTGSTYYADSVKGRFTISRDNAKNTVYLQMNSLKPEDTAVYYCAAGSRVRYDGGYKINGYWGQGTQVTVSS | high polyreactivity
35 | QVQLVESGGGLVQAGGSLRLSCAASGRIFVPYAMGWYRQAPGKERELVAAISRSSPTYYADSVKGRFTISRDNAKNSVYLQMNSLKQEDTAGYYCAAAYYATTPKADYHFRGYEYWGQGTQVTVSS | high polyreactivity
36 | QVQLVESGGGLVQAGGSLRLSCAASGRIFVRNALGWYRQAPGKERELVAGINSGGGTTYADSVKGRFTISRDNAKNTVYLQMNSLKPEDTAVYYCAAGYWTRYWSWVDYWGQGTQVTVSS | high polyreactivity
37 | QVQLVESGGGLVQAGGSLRLSCAASGRIFVRNAMGWYRQAPGKERELVATITSIGGRTYYADSVKGRFTISRDNAKNTVYLQMNSLKPEDTAVYYCAAYNTQSYPAYLRYDYWGQGTQVTVSS | low polyreactivity
38 | QVQLVESGGGLVQAGGSLRLSCAASGRIFVRNVMGWYRQAPGQERELVARITSGGSTNYADSVKGRFTISRDNAKNTVYLQINSLKPEDTAVYYCAAQGRHYHRTSTGYDYWGQGTQVTVSS | high polyreactivity
39 | QVQLVESGGGLVQAGGSLRLSCAASGRIFVRYAMGWYRQAPGKERELVAAISYRGGSTYYADSVKGRFTISRDNAKNTVYLQMNSLKPEDTAVYYCAARNSYGNWRYYYWGQGTQVTVSS | high polyreactivity
40 | QVQLVESGGGLVQAGGSLRLSCAASGRIFVRYAMGWYRQAPGKERELVASIRSGGSTNYADSVKGRFTISRDNAKNTVYLQMNSLKPEDTAVYYCAAVLRPVRFYSGYYYWGQGTQVTVSS | high polyreactivity
41 | QVQLVESGGGLVQAGGSLRLSCAASGRIFVRYDRGWYRQAPGKERELVAAISSSDGSTYYADSVKGRFTISRDNAKNTVYLQMNSLKPEDTAVYYCNADVSLDDYDYWGQGTQVTVSS | low polyreactivity
42 | QVQLVESGGGLVQAGGSLRLSCAASGRIFVRYTMGWYRQAPGKERELVARITSGGSTNYADSVKGRFTISRDNAKNTVYLQMNSLKPEDTAVYYCAKSYGPRFGYWGQGTQVTVSS | low polyreactivity
43 | QVQLVESGGGLVQAGGSLRLSCAASGRIFVSNAMGWYRQAPGKERELVAAISSSGGSTYYADSVKGRFTISRDNAKNTVYLQMNSLKPEDTAVYYCNVLGQRYYPSGRNYWGQGTQVTVSS | high polyreactivity
